Measured values reported in US20250361274A1, “PEPTIDE AND PEPTIDE-CONTAINING AGENT” (PEPTIDREAM INC., priority 2022, published 2025).
Square brackets hold non-standard residues; d marks the D form. Ends that are not written are not given here. Phe(4-COOH) = N[C@@H](Cc1ccc(C(=O)O)cc1)C(=O)O; NMePhe(3-Cl) = CN[C@@H](Cc1cccc(Cl)c1)C(=O)O; NMePhe(4-Cl) = CN[C@@H](Cc1ccc(Cl)cc1)C(=O)O; NMePhe(3-Me) = CN[C@@H](Cc1cccc(C)c1)C(=O)O; NMePhe(4-Me) = CN[C@@H](Cc1ccc(C)cc1)C(=O)O; Bip = N[C@@H](Cc1ccc(-c2ccccc2)cc1)C(=O)O; Phe(4-F) = N[C@@H](Cc1ccc(F)cc1)C(=O)O; cisHyp = O=C(O)[C@@H]1C[C@H](O)CN1; NMeF = CN[C@@H](Cc1ccccc1)C(=O)O; Aad = N[C@@H](CCCC(=O)O)C(=O)O; Cha = N[C@@H](CC1CCCCC1)C(=O)O; MeY = Methyl-L-tyrosine; Abu = CC[C@H](N)C(=O)O; βAla = NCCC(=O)O

Experiments:
BMP7 = molecular target: T1, BMP7 (Homo sapiens, UniProt P18075); experiment: BMP7 signal transduction inhibitory activity: SMAD1 phosphorylation by BMP7 stimulus, A549 cells; format: cell-based; details: BMP7 10 nM stimulus
T1 sequence (P18075 293-431): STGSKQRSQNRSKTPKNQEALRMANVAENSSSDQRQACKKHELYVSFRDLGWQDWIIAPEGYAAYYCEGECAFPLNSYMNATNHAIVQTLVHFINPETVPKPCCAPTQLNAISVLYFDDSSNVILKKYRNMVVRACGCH
In short: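 Inhibition is read as reduced BMP7-driven SMAD1 phosphorylation in human A549 cells, with the BMP7 stimulus at 10 nM. Three-point peptide concentrations spanned 1–1,000 nM depending on the peptide series. Some peptides received eight-point, 1/3-ratio titrations from 100 nM or 1,000 nM, alongside a Noggin control.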

BMP4 = molecular target: T2, BMP4 (Homo sapiens, UniProt P12644); experiment: BMP4 signal transduction inhibitory activity: SMAD1 phosphorylation by BMP4 stimulus, AlphaLISA SureFire, A549 cells; format: cell-based; details: BMP4 0.2 nM stimulus
T2 sequence (P12644 293-408): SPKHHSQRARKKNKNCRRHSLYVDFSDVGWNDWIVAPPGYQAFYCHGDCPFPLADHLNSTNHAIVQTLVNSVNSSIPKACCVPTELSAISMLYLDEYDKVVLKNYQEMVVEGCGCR

[1] = peptide conc. in assay 10, 30, 90 nM
[2] = peptide conc. in assay 2, 20, 200 nM
[3] = peptide conc. in assay 1, 10, 100 nM
[4] = peptide conc. in assay 0.2, 2, 20 nM

Substance	aLISA BMP7 (10 nM) % inh (BMP7; [1])	aLISA BMP4 (0.2 nM) % inh (BMP4; [2])	aLISA BMP7 (10 nM) % inh (BMP7; [3])	aLISA BMP4 (0.2 nM) % inh (BMP4; [4])
387 (FG[MeY]G[Bip]GDD[Cha]A[NMeF]LHCG-NH2; not fully specified) [compound 387]	F (showed less than 30% of inhibitory activity in 10 nM-addition zone and showed 30% or more of inhibitory activity in 30 nM-addition zone)	A (showed less than 30% of inhibitory activity in 2 nM-peptide-addition zone and showed 30% or more of inhibitory activity in 20 nM-addition zone)	–	–
388 (FG[NMeF]G[Bip]GDD[Cha]A[NMePhe(3-Cl)]LHCG-NH2; not fully specified) [compound 388]	E (showed 30% or more of inhibitory activity in 10 nM-addition zone)	B (showed less than 30% of inhibitory activity in 20 nM-addition zone and showed 30% or more of inhibitory activity in 200 nM-addition zone)	–	–
389 (FG[NMeF]G[Bip]GDD[Cha]A[NMePhe(4-Cl)]LHCG-NH2; not fully specified) [compound 389]	E (showed 30% or more of inhibitory activity in 10 nM-addition zone)	B (showed less than 30% of inhibitory activity in 20 nM-addition zone and showed 30% or more of inhibitory activity in 200 nM-addition zone)	–	–
390 (FG[NMeF]G[Bip]GDD[Cha]A[NMePhe(3-Me)]LHCG-NH2) [compound 390]	E (showed 30% or more of inhibitory activity in 10 nM-addition zone)	B (showed less than 30% of inhibitory activity in 20 nM-addition zone and showed 30% or more of inhibitory activity in 200 nM-addition zone)	–	–
391 (FG[NMeF]G[Bip]GDD[Cha]AYLHCG-NH2; not fully specified (residue 11)) [compound 391]	F (showed less than 30% of inhibitory activity in 10 nM-addition zone and showed 30% or more of inhibitory activity in 30 nM-addition zone)	A (showed less than 30% of inhibitory activity in 2 nM-peptide-addition zone and showed 30% or more of inhibitory activity in 20 nM-addition zone)	–	–
392 ([Phe(4-F)]G[NMeF]G[Bip]GDD[Cha]A[NMeF]LHCG-NH2; not fully specified) [compound 392]	–	–	D (showed less than 30% of inhibitory activity in 10 nM-addition zone and showed 30% or more of inhibitory activity in 100 nM-addition zone)	A (showed less than 30% of inhibitory activity in 2 nM-peptide-addition zone and showed 30% or more of inhibitory activity in 20 nM-addition zone)
393 (FG[NMePhe(4-Me)]G[Bip]GDD[Cha]A[NMeF]LHCG-NH2; not fully specified) [compound 393]	–	–	D (showed less than 30% of inhibitory activity in 10 nM-addition zone and showed 30% or more of inhibitory activity in 100 nM-addition zone)	A (showed less than 30% of inhibitory activity in 2 nM-peptide-addition zone and showed 30% or more of inhibitory activity in 20 nM-addition zone)
394 (FG[NMeF]G[Bip]GDD[Cha]A[NMePhe(4-Me)]LHCG-NH2; not fully specified) [compound 394]	–	–	D (showed less than 30% of inhibitory activity in 10 nM-addition zone and showed 30% or more of inhibitory activity in 100 nM-addition zone)	ND (the inhibitory activity was less than 30% at the maximum concentration evaluated)
395 ([Phe(4-F)]G[NMePhe(4-Me)]G[Bip]GDD[Cha]A[NMeF]LHCG-NH2; not fully specified) [compound 395]	–	–	D (showed less than 30% of inhibitory activity in 10 nM-addition zone and showed 30% or more of inhibitory activity in 100 nM-addition zone)	A (showed less than 30% of inhibitory activity in 2 nM-peptide-addition zone and showed 30% or more of inhibitory activity in 20 nM-addition zone)
396 ([Phe(4-F)]G[NMeF]G[Bip]GDD[Cha]A[NMePhe(4-Me)]LHCG-NH2; not fully specified) [compound 396]	–	–	C (showed less than 30% of inhibitory activity in a zone to which the peptide was added in an amount of 1 nM and showed 30% or more of inhibitory activity in 10 nM-addition zone)	A (showed less than 30% of inhibitory activity in 2 nM-peptide-addition zone and showed 30% or more of inhibitory activity in 20 nM-addition zone)
397 (FG[NMePhe(4-Me)]G[Bip]GDD[Cha]A[NMePhe(4-Me)]LHCG-NH2; not fully specified) [compound 397]	–	–	D (showed less than 30% of inhibitory activity in 10 nM-addition zone and showed 30% or more of inhibitory activity in 100 nM-addition zone)	ND (the inhibitory activity was less than 30% at the maximum concentration evaluated)
398 ([Phe(4-F)]G[NMePhe(4-Me)]G[Bip]GDD[Cha]A[NMePhe(4-Me)]LHCG-NH2; not fully specified) [compound 398]	–	–	D (showed less than 30% of inhibitory activity in 10 nM-addition zone and showed 30% or more of inhibitory activity in 100 nM-addition zone)	A (showed less than 30% of inhibitory activity in 2 nM-peptide-addition zone and showed 30% or more of inhibitory activity in 20 nM-addition zone)
399 (FG[NMeF]G[Bip]GDE[Cha]Q[NMeF]L[Abu]CG-NH2; not fully specified) [compound 399]	–	–	C (showed less than 30% of inhibitory activity in a zone to which the peptide was added in an amount of 1 nM and showed 30% or more of inhibitory activity in 10 nM-addition zone)	ND (the inhibitory activity was less than 30% at the maximum concentration evaluated)
400 (FG[NMeF]G[Bip]GDE[Cha]Q[NMeF]L[cisHyp]CG-NH2) [compound 400]	–	–	C (showed less than 30% of inhibitory activity in a zone to which the peptide was added in an amount of 1 nM and showed 30% or more of inhibitory activity in 10 nM-addition zone)	ND (the inhibitory activity was less than 30% at the maximum concentration evaluated)
401 (FG[NMeF]G[Bip]GDE[Cha][Aad][NMeF]L[Phe(4-COOH)]CG-NH2; not fully specified) [compound 401]	–	–	C (showed less than 30% of inhibitory activity in a zone to which the peptide was added in an amount of 1 nM and showed 30% or more of inhibitory activity in 10 nM-addition zone)	ND (the inhibitory activity was less than 30% at the maximum concentration evaluated)
402 (FG[NMeF]G[Bip]GDE[Cha][Aad][NMeF]L[Abu]CG-NH2; not fully specified) [compound 402]	–	–	C (showed less than 30% of inhibitory activity in a zone to which the peptide was added in an amount of 1 nM and showed 30% or more of inhibitory activity in 10 nM-addition zone)	ND (the inhibitory activity was less than 30% at the maximum concentration evaluated)
403 (FG[NMeF]G[Bip]GDE[Cha][Aad][NMeF]L[cisHyp]CG-NH2; not fully specified) [compound 403]	–	–	C (showed less than 30% of inhibitory activity in a zone to which the peptide was added in an amount of 1 nM and showed 30% or more of inhibitory activity in 10 nM-addition zone)	ND (the inhibitory activity was less than 30% at the maximum concentration evaluated)
404 (FG[NMeF]G[Bip]GDE[Cha]Q[NMeF]L[Phe(4-COOH)]C-NH2; not fully specified) [compound 404]	–	–	C (showed less than 30% of inhibitory activity in a zone to which the peptide was added in an amount of 1 nM and showed 30% or more of inhibitory activity in 10 nM-addition zone)	ND (the inhibitory activity was less than 30% at the maximum concentration evaluated)
405 (FG[NMeF]G[Bip]GDE[Cha]Q[NMeF]L[Phe(4-COOH)]CG; not fully specified) [compound 405]	–	–	D (showed less than 30% of inhibitory activity in 10 nM-addition zone and showed 30% or more of inhibitory activity in 100 nM-addition zone)	ND (the inhibitory activity was less than 30% at the maximum concentration evaluated)
406 (FG[NMeF]G[Bip]GDE[Cha]Q[NMeF]L[Phe(4-COOH)]C[βAla]) [compound 406]	–	–	D (showed less than 30% of inhibitory activity in 10 nM-addition zone and showed 30% or more of inhibitory activity in 100 nM-addition zone)	ND (the inhibitory activity was less than 30% at the maximum concentration evaluated)
407 (FG[NMeF]G[Bip]GDE[Cha]Q[NMeF]L[Phe(4-COOH)]C[βAla][dE]) [compound 407]	–	–	C (showed less than 30% of inhibitory activity in a zone to which the peptide was added in an amount of 1 nM and showed 30% or more of inhibitory activity in 10 nM-addition zone)	ND (the inhibitory activity was less than 30% at the maximum concentration evaluated)
408 (FG[NMeF]G[Bip]GDE[Cha][Aad][NMeF]L[Phe(4-COOH)]C-NH2) [compound 408]	–	–	C (showed less than 30% of inhibitory activity in a zone to which the peptide was added in an amount of 1 nM and showed 30% or more of inhibitory activity in 10 nM-addition zone)	ND (the inhibitory activity was less than 30% at the maximum concentration evaluated)
409 (FG[NMeF]G[Bip]GDE[Cha][Aad][NMeF]L[Phe(4-COOH)]C[βAla][dE]) [compound 409]	–	–	D (showed less than 30% of inhibitory activity in 10 nM-addition zone and showed 30% or more of inhibitory activity in 100 nM-addition zone)	ND (the inhibitory activity was less than 30% at the maximum concentration evaluated)
